In experiment [1] the target is T1, extracellular domain (ECD) of human CD79B isoform 2, CD9W8 (human).
T1 construct: It also carries C-terminal tag residues ending in a 6xHis tag; also called CD79b short isoform; hCD79B-short
T1 chain: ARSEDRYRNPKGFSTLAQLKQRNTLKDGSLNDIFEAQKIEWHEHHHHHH
Kind of experiment: SPR; hCD79B-short. On the technique in general: In SPR one partner is held on a chip, and binding of the other changes the refractive index at the surface.

Experiment [2] has as its target T2, extracellular domain (ECD) of human CD79B isoform 1, CD9W7 (human).
T2 construct: It also carries C-terminal tag residues ending in a 6xHis tag; also called CD79b long isoform; hCD79B-long
T2 chain: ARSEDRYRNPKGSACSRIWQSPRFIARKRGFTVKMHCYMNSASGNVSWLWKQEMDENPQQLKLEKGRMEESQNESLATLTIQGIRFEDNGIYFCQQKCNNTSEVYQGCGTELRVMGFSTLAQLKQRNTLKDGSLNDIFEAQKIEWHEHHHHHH
In words: SPR; hCD79B-long.

The record followed here is US20240158499A1 (Janssen / Centocor, published 2024).

B1: CD9B1256 (antibody, V domains shown)
VH: EVQLVESGPGLVEPSETLSLTCTVSGGSISSYYWSWIRQPAGKGLEWIGRIYSSGSTNYNPSLKSRVTMSVDTSENQFSLNLNSVTAADTAKYYCARGEYSGDLGGYGLDVWGQGTMVTVSS
VL: EIVMTQSPLSLSVTPGEPASISCRSSQSLLDSDDGNTYLDWYLQKPGQSPQLLIQTLSYRASGVPDRFSGRGSGTDFTLKISRVEAEDVGIYYCMQRMEFPLTFGGGTKVDIKR
notes: also called VR000056263
A word on the Kd: it is the concentration at which binding is half-saturated. The low end stands for tighter binding, the high end for weaker binding. On to B1, for which the results for the Kd in experiment [1] and in experiment [2] were 2.21 nM and 0.78 nM, respectively.
